Measured values published in PMC8727025.

Target: Arf1 Arf1-del17, lacks the first 17 amino acids (UniProt P84077)
Assay: GFP-GBF1 beads incubated with purified Arf1-del17-His
Details: reference: wild type

Sequence of Arf1 Arf1-del17, lacks the first 17 amino acids (P84077 whole entry, looked up): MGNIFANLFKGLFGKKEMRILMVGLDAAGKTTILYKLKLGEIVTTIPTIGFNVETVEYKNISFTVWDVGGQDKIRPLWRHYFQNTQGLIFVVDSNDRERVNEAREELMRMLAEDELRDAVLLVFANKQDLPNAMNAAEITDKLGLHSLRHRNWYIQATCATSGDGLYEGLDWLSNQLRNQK

Substance | other: percent reduction vs wild type (sites Y876) [%] | other: percent reduction vs wild type (sites Y898) [%]
GBF1 (from UniProt Q92538-1) Y876F | 40 | –
GBF1 (from UniProt Q92538-1) Y898F | – | 60
